According to PMC6393296, “Intrinsically disordered regions regulate both catalytic and non-catalytic activities of the MutLα mismatch repair complex”:

Tests used:
[1] = target: Mlh1 (WT, FLAG);Pms1 (WT) (Saccharomyces cerevisiae (expressed in …, UniProt P38920;P14242 1-769;1-873, |)); assay: filter binding; no nucleotide; 2 mM Mg2+; Filter binding: 20 mM Tris-HCl pH 7.5, 20 mM NaCl (25 mM in legends), 0.01 mM EDTA, 2 mM MgCl2, 40 ug/ml BSA, 0.1 mM DTT, 15 nM DNA, +/-1 mM ATP, 30 C, 10 min; settings: protein: recombinant;recombinant; tags: FLAG inserted at position 499;; copies: 1;1; label: 5'-32P on AO3142; blunt
[2] = target: Mlh1 del348-373 (FLAG);Pms1 del584-634 (DLDnull subunit) (Saccharomyces cerevisiae (expressed in …, UniProt P38920;P14242 1-769;1-873, del348-373|del584-634)); assay: filter binding; no nucleotide; 2 mM Mg2+; similar to WT; Filter binding: 20 mM Tris-HCl pH 7.5, 20 mM NaCl (25 mM in legends), 0.01 mM EDTA, 2 mM MgCl2, 40 ug/ml BSA, 0.1 mM DTT, 15 nM DNA, +/-1 mM ATP, 30 C, 10 min; settings: protein: recombinant;recombinant; tags: FLAG inserted at position equivalent to 499;; copies: 1;1; label: 5'-32P on AO3142; blunt
[3] = target: Mlh1 del348-373 (FLAG);Pms1 del438-487 (DLDMMR subunit) (Saccharomyces cerevisiae (expressed in …, UniProt P38920;P14242 1-769;1-873, del348-373|del438-487)); assay: as above; settings: protein: recombinant;recombinant; tags: FLAG inserted at position equivalent to 499;; copies: 1;1; label: 5'-32P on AO3142; blunt

Measured: binding result

Chain of Mlh1 del348-373 (FLAG);Pms1 del584-634 (DLDnull subunit) (Saccharomyces cerevisiae (P38920 other isoform, or with tags, fused parts or gaps del348-373|del584-634, chain 1 of 2): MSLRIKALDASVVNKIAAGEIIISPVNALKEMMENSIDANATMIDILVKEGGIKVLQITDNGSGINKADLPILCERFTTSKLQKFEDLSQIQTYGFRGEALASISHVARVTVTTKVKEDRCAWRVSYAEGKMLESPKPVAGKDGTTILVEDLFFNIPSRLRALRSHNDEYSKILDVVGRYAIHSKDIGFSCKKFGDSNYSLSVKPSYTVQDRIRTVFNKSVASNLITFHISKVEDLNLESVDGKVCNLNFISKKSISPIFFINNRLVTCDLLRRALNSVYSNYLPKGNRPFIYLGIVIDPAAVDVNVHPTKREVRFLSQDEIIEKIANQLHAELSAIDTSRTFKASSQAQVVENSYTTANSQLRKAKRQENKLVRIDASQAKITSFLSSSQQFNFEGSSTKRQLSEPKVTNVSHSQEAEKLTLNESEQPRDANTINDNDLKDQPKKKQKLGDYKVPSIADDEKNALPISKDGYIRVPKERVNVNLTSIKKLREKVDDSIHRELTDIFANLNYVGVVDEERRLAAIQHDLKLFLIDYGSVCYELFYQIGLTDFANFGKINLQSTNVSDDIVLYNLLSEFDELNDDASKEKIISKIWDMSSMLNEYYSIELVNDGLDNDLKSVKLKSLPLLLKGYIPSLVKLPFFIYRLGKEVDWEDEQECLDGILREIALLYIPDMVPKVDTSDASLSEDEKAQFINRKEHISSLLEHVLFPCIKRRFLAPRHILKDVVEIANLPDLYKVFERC
Chain of Mlh1 del348-373 (FLAG);Pms1 del584-634 (DLDnull subunit) (Saccharomyces cerevisiae (P14242 other isoform, or with tags, fused parts or gaps del348-373|del584-634, chain 2 of 2): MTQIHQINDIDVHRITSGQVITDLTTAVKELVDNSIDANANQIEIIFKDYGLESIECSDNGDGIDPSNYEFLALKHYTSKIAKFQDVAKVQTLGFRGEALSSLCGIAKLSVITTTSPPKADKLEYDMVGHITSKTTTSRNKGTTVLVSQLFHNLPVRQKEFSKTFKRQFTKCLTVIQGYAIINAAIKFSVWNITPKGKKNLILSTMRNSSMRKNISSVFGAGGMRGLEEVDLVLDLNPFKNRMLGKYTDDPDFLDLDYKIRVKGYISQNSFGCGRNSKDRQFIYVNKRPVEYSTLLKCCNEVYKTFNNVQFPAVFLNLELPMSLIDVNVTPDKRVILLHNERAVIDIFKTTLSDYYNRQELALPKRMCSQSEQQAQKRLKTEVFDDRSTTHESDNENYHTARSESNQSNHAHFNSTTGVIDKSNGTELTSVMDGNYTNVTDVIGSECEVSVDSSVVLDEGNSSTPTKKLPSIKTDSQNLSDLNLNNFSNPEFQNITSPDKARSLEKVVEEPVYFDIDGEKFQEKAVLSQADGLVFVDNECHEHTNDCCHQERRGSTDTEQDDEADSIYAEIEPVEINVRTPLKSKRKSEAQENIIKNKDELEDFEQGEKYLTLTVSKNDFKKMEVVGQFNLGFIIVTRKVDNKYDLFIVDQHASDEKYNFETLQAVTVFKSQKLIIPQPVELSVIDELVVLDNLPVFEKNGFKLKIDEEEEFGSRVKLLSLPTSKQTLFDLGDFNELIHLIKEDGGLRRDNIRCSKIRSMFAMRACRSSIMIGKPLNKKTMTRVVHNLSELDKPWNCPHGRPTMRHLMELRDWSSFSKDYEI
Chain of Mlh1 del348-373 (FLAG);Pms1 del438-487 (DLDMMR subunit) (Saccharomyces cerevisiae (P38920 other isoform, or with tags, fused parts or gaps del348-373|del438-487, chain 1 of 2): as the sequence (P38920 other isoform, or with tags, fused parts or gaps del348-373|del584-634, chain 1 of 2) above
Chain of Mlh1 del348-373 (FLAG);Pms1 del438-487 (DLDMMR subunit) (Saccharomyces cerevisiae (P14242 other isoform, or with tags, fused parts or gaps del348-373|del438-487, chain 2 of 2): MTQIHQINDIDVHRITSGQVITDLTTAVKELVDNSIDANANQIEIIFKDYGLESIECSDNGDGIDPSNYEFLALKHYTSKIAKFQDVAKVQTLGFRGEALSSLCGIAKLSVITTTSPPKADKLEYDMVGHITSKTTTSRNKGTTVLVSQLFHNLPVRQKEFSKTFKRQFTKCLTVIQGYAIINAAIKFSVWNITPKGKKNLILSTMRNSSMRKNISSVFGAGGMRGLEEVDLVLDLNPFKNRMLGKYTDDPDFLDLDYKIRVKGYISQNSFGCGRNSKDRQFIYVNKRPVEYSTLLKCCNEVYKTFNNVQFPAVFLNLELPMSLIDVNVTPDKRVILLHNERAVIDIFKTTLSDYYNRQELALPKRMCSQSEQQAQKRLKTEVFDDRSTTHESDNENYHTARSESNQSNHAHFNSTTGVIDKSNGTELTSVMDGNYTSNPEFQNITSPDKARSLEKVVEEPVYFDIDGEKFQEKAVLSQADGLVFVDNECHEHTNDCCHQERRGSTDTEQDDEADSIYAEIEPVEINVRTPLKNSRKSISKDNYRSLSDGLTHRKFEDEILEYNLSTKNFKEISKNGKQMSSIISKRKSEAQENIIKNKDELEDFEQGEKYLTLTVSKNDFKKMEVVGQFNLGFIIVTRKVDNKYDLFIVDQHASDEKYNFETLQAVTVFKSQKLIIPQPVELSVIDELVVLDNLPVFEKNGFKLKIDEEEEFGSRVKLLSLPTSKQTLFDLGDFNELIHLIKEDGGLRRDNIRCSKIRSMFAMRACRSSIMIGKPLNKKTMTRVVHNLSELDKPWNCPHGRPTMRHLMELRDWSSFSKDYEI
Chain of Mlh1 (WT, FLAG);Pms1 (WT) (Saccharomyces cerevisiae (P38920 whole entry, chain 1 of 2): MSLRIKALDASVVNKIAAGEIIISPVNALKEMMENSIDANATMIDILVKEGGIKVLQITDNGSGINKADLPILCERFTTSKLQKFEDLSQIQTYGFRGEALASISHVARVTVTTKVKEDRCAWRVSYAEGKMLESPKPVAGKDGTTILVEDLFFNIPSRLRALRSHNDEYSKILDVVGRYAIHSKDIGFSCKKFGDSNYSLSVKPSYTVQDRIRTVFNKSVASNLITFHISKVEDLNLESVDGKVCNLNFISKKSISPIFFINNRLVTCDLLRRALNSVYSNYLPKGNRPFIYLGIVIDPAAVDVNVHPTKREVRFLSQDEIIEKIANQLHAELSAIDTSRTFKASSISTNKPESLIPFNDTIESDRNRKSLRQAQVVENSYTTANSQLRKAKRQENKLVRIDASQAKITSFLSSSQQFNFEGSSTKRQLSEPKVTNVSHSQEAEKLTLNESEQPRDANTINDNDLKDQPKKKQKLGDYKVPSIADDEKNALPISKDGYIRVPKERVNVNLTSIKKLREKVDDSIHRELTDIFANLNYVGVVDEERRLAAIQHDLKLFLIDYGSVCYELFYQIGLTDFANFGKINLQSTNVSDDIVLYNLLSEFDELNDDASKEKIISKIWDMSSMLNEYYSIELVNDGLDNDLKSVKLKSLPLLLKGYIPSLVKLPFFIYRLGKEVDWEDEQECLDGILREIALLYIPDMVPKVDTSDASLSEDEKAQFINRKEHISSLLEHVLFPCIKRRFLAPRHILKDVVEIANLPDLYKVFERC
Chain of Mlh1 (WT, FLAG);Pms1 (WT) (Saccharomyces cerevisiae (P14242 whole entry, chain 2 of 2): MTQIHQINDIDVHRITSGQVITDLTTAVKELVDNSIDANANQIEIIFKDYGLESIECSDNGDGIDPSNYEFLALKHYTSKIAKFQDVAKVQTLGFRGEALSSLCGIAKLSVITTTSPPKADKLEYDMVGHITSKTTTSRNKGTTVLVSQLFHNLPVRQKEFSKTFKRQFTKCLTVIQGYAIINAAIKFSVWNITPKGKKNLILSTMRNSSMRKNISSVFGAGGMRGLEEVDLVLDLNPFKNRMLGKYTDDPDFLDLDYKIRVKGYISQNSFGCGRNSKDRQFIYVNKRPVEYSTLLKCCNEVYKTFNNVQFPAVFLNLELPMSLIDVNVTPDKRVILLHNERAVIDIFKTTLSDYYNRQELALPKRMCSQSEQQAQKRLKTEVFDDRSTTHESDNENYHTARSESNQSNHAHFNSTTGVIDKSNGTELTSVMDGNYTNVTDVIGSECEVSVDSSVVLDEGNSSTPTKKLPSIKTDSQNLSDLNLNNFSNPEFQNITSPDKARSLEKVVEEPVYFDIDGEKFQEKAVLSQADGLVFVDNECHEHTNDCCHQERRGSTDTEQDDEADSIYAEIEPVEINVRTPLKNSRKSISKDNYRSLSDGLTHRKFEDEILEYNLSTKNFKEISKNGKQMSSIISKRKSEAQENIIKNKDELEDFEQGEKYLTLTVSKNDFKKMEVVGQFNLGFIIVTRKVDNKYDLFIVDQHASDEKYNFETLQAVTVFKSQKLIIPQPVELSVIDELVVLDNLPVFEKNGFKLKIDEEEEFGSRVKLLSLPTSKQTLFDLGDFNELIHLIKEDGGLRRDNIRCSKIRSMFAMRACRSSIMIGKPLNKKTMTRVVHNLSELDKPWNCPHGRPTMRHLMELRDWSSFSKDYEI

B1: 49-bp homoduplex AO3142/AO3144 (dsDNA)
DNA 1: GGGTCAACGTGGGCAAAGATGTCCTAGCAAGTCAGAATTCGGTAGCGTG
DNA 2: CACGCTACCGAATTCTGACTTGCTAGGACATCTTTGCCCACGTTGACCC
binds: all assays above
